Measured values published in patent publication US10471162B2, “Collagen targeted imaging probes” (priority 2014, dated 2019).

Columns and labels:
[1] = test system: pulmonary fibrosis, C57/BL6 mice (bleomycin or sham); experiment: in vivo; type: in vivo, mouse; settings: male, C57/BL6, mouse, in vivo, iv, 2.5 h
Experimental: (§1) Pulmonary fibrosis was induced in 7-8-week-old male C57/BL6 mice by transtracheal administration of bleomycin (BM; 2.5 U/kg) in 50 μL of PBS under direct vision using a small cervical incision. Sham animals received only PBS. Animals were placed in a small-animal PET/SPECT/CT scanner (Triumph; TriFoil Imaging), equipped with inhalation anesthesia and heating pad. Each animal was anesthetized with isoflurane (4% for induction, 2-2.5% for maintenance in medical air) and body temperature was kept at 37-38° C. using a heating pad. The femoral vein was cannulated for intravenous delivery of the PET agent. Each mouse was injected with approximately 0.1 mL and 20-50 μCi of ^64Cu-CBP(n), 0.1 mL and 20-50 μCi of ^68Ga-CBP(n) and 0.1 mL and 10-20 μCi of Al^18F-CBP(n) in a 18 mM solution of sucrose in water, followed by saline flush. […] The lungs, blood, urine, heart, liver, left rectus femoris muscle, spleen, small intestine, kidneys, left femur bone were collected from all animals. The tissues were weighed, and radioactivity in each tissue was measured on a gamma counter (CobraII Auto gamma; Packard). The radioactivity in the lung was reported as percent injected dose per gram corrected with the average sham weight, which was calculated by dividing the counts of ^64Cu per average sham tissue weight in gram by the total of counts of the injected dose. The radioactivity in every other tissue was reported as percent injected dose per gram (% ID/g), which was calculated by dividing the counts of ^64Cu per gram of tissue by the total of counts of the injected dose. A p-value of less than 0.05 was considered significant. Uncertainties are expressed as the standard error of the mean.

[2] = in vivo; type: in vivo, mouse; settings: male, C57/BL6, mouse, in vivo, iv, total radioactivity, Biodistribution % ID/g
Experimental: as §1

| Compound | Biodistribution % ID/g, blood [1] | Biodistribution % ID/g, heart [1] | Biodistribution % ID/g, liver [1] | Biodistribution % ID/g, spleen [1] | tissue uptake at 2.5 h ([2]; blood) | tissue uptake at 2.5 h ([2]; heart) | tissue uptake at 2.5 h ([2]; liver) | tissue uptake at 2.5 h ([2]; spleen) | Biodistribution % ID/g, bone [1] | Biodistribution % ID/g, kidney [1] | Biodistribution % ID/g, sm. intestine [1] | tissue uptake at 2.5 h ([2]; bone) | tissue uptake at 2.5 h ([2]; kidney) | tissue uptake at 2.5 h ([2]; sm. intestine) |
| --- | --- | --- | --- | --- | --- | --- | --- | --- | --- | --- | --- | --- | --- | --- |
| CC(C)C[C@H](NC(=O)[C@@H]1CSSC[C@@H](NC(=O)[C@H](Cc2c[nH]cn2)NC(=O)[C@H](Cc2c[nH]c3ccccc23)NC(=O)[C@H](CCCCNC(=O)CNC(=O)CCC(C(=O)O)N2CCN(CC(=O)O)CCN(CC(=O)O)CC2)NC(=O)CNC(=O)CCC(C(=O)O)N2CCN(CC(=O)O)CCN(CC(=O)O)CC2)C(=O)N[C@@H]([C@@H](C)O)C(=O)N[C@@H]([C@@H](C)O)C(=O)N[C@@H](CCCCNC(=O)CCC(C(=O)O)N2CCN(CC(=O)O)CCN(CC(=O)O)CC2)C(=O)N[C@@H](Cc2ccccc2)C(=O)N2CCC[C@H]2C(=O)N[C@@H](Cc2c[nH]cn2)C(=O)N[C@@H](Cc2c[nH]cn2)C(=O)N[C@@H](Cc2ccc(O)cc2)C(=O)N1)C(=O)N[C@@H](Cc1ccc(O)cc1)C(=O)N[C@@H](Cc1ccc(-c2ccccc2)cc1)C(N)=O (stereo partly shown) (64Cu complex, metal not drawn) [CBP11] | 0.373 ± 0.180 % ID/g | 0.170 ± 0.044 % ID/g | 0.953 ± 0.069 % ID/g | 0.475 ± 0.063 % ID/g | 0.21 ± 0.017 %ID/g | 0.143 ± 0.008 %ID/g | 1.3 ± 0.086 %ID/g | 0.408 ± 0.015 %ID/g | – | – | – | – | – | – |
| CC(C)C[C@H](NC(=O)[C@@H]1CSSC[C@H](NC(=O)[C@H](Cc2c[nH]cn2)NC(=O)[C@H](Cc2c[nH]c3ccccc23)NC(=O)[C@H](CCCCNC(=O)CNC(=O)CN2CCN(CC(=O)O)CCN(CC(=O)O)CC2)NC(=O)CNC(=O)CN2CCN(CC(=O)O)CCN(CC(=O)O)CC2)C(=O)N[C@@H]([C@@H](C)O)C(=O)N[C@@H]([C@@H](C)O)C(=O)N[C@@H](CCCCNC(=O)CN2CCN(CC(=O)O)CCN(CC(=O)O)CC2)C(=O)N[C@@H](Cc2ccccc2)C(=O)N2CCC[C@H]2C(=O)N[C@@H](Cc2c[nH]cn2)C(=O)N[C@@H](Cc2c[nH]cn2)C(=O)N[C@@H](Cc2ccc(O)cc2)C(=O)N1)C(=O)N[C@@H](Cc1ccc(O)cc1)C(=O)N[C@@H](Cc1ccc(-c2ccccc2)cc1)C(N)=O [CBP10, Al^18F-NOTA-cPep(7)] | – | – | 27.231 ± 0.995 % ID/g | – | – | – | 14 ± 1 %ID/g | – | 2.963 ± 0.716 % ID/g | 44.170 ± 16.811 % ID/g | 1.492 ± 0.542 % ID/g | 2.53 ± 0.735 %ID/g | 26.2 ± 4.85 %ID/g | 1.12 ± 0.48 %ID/g |
